Biological target: T1, recombinant human CEACAM1 expressed in the murine myeloma cell line NSO (human, UniProt P13688 35-428)
T1 construct: human CEACAM1, recombinant; also called immobilized CEACAM1; CD66a; source: bought: R&D systems (expressed in NSO cells)
T1 sequence (looked up): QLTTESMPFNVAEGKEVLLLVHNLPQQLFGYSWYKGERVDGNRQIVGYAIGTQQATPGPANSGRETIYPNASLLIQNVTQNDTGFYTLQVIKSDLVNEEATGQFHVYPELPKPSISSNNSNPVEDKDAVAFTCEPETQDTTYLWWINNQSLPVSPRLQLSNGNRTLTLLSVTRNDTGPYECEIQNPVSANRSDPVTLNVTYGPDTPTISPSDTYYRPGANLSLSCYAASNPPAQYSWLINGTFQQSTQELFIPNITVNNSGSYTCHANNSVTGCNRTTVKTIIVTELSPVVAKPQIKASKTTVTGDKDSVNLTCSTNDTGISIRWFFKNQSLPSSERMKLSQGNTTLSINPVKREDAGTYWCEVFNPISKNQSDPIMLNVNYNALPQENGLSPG
Assay: ELISA; Gal‐9 or CEACAM1 immobilized overnight at 4°C on Maxisorp plates (coating 0.5 μg/mL); Ig fusion proteins added in PBS‐0.5% BSA, 1 h at room temperature; detected with HRP‐labeled goat‐anti‐human IgG (Fc‐specific), ABTS, OD 405 nm
Settings: both partners purified

B1: fusion protein representing the extracellular domain of CEACAM1 (CEACAM1‐Ig) (Fc fusion, human, UniProt P13688 35-428, looked up)
chain: QLTTESMPFNVAEGKEVLLLVHNLPQQLFGYSWYKGERVDGNRQIVGYAIGTQQATPGPANSGRETIYPNASLLIQNVTQNDTGFYTLQVIKSDLVNEEATGQFHVYPELPKPSISSNNSNPVEDKDAVAFTCEPETQDTTYLWWINNQSLPVSPRLQLSNGNRTLTLLSVTRNDTGPYECEIQNPVSANRSDPVTLNVTYGPDTPTISPSDTYYRPGANLSLSCYAASNPPAQYSWLINGTFQQSTQELFIPNITVNNSGSYTCHANNSVTGCNRTTVKTIIVTELSPVVAKPQIKASKTTVTGDKDSVNLTCSTNDTGISIRWFFKNQSLPSSERMKLSQGNTTLSINPVKREDAGTYWCEVFNPISKNQSDPIMLNVNYNALPQENGLSPG
notes: CEACAM1 (CD66a), extracellular domain; also called CEACAM1 Ig fusion protein; source: bought: SinoBiological
Question: Does B1 bind?
Answer: Result: binds
